From patent US20250034266A1 (ZAI LAB SHANGHAI, published 2025)
Numbering of substitutions follows the chain as printed.

B1: Hu149-1 (antibody, V domains shown)
VH: EVQLVESGGGLVQPGGSLKLSCAASGFTFNTYAMNWVRQASGKGLEWVGRIRSKSNFYATYYAASVKGRFTISRDDSKNTAYLQMNSLKTEDTAVYYCVRGRDYGSSYAMDYWGQGTLVTVSS
VL: DIVMTQSPLSLPVTPGEPASISCRSSKSLLHSNANTYLYWFLQKPGQSPQLLIYRMSNLASGVPDRFSGSGSGTDFTLKISRVEAEDVGVYYCMQHLEYPLTFGGGTKVELK
notes: humanized IgG, detected with anti-human IgG
B2: Hu149-2 (antibody, V domains shown)
VH: B1 VH with N35H
VL: B1 VL
notes: humanized IgG
B3: Hu149-3 (antibody, V domains shown)
VH: B1 VH with Y61A
VL: B1 VL
notes: humanized IgG
B4: Hu149-8 (antibody, V domains shown)
VH: B1 VH with V99T
VL: B1 VL with F41Y
notes: humanized IgG
B5: Hu149-6 (antibody, V domains shown)
VH: B1 VH with N35H
VL: B1 VL with F41Y
notes: humanized IgG
B6: Hu149-7 (antibody, V domains shown)
VH: B1 VH with Y61A
VL: B1 VL with F41Y
notes: humanized IgG
B7: Hu149-5 (antibody, V domains shown)
VH: B1 VH
VL: B1 VL with F41Y
notes: humanized IgG
B8: Hu348-1 (antibody, V domains shown)
VH: EVQLVESGGGLVQPGGSLKLSCATSGFSFSNYRMHWLRQASGKGLEWVGVITVKSDNYGANYAASVKGRFTISRDDSKSSVYLQMNSLKTEDTAVYYCSSLGRVAYWGQGTLVTVSS
VL: DIQMTQSPSSVSASVGDRVTITCKASQNVDTNVVWYQQKPGQSPKALIYSASSRYSGVPDRFSGSGSGTDFTLTISSLQPEDFATYYCQQHNSFPLTFGQGTKLEIK
notes: humanized IgG
B9: Hu348-2 (antibody, V domains shown)
VH: B8 VH
VL: B8 VL with Q42K, S43A
notes: humanized IgG
B10: Hu348-8 (antibody, V domains shown)
VH: B8 VH with S79N, S80T, V81A
VL: B8 VL
notes: humanized IgG
B11: Hu348-7 (antibody, V domains shown)
VH: B8 VH with V50R, A60T, N61A
VL: B8 VL
notes: humanized IgG
B12: Hu348-6 (antibody, V domains shown)
VH: B8 VH with L37V
VL: B8 VL
notes: humanized IgG
B13: Hu348-5 (antibody, V domains shown)
VH: B8 VH with T24A, R33A
VL: B8 VL
notes: humanized IgG
B14: Hu348-9 (antibody, V domains shown)
VH: B8 VH with S99T
VL: B8 VL
notes: humanized IgG
B15: Hu348-3 (antibody, V domains shown)
VH: B8 VH
VL: B8 VL with A46L
notes: humanized IgG
B16: Hu149-12G1x (antibody)
heavy: B1 VH with Y61A, V99T, R102K, D103E
VL: B1 VL
notes: Fc variant of Hu149-12; not shown: Fc variant 'G1x' is not defined in words
B17: Hu149-11G1x (antibody)
heavy: B1 VH with Y61A, V99T, D103E
VL: B1 VL
notes: Fc variant of Hu149-11; not shown: Fc variant 'G1x' is not defined in words
B18: Hu149-11G1m (antibody, human IgG1)
heavy: EVQLVESGGGLVQPGGSLKLSCAASGFTFNTYAMNWVRQASGKGLEWVGRIRSKSNFYATAYAASVKGRFTISRDDSKNTAYLQMNSLKTEDTAVYYCTRGREYGSSYAMDYWGQGTLVTVSSASTKGPSVFPLAPSSKSTSGGTAALGCLVKDYFPEPVTVSWNSGALTSGVHTFPAVLQSSGLYSLSSVVTVPSSSLGTQTYICNVNHKPSNTKVDKKVEPKSCDKTHTCPPCPAPELVGGPSVFLLPPKPKDTLMISRTPEVTCVVVDVSHEDPEVKFNWYVDGVEVHNAKTKPPEEQYNSTLRVVSVLTVLHQDWLNGKEYKCKVSNKALPAPIEKTISKAKGQPREPQVYTLPPSRDELTKNQVSLTCLVKGFYPSDIAVEWESNGQPENNYKTTPLVLDSDGSFFLYSKLTVDKSRWQQGNVFSCSVMHEALHNHYTQKSLSLSPGK
VL: B1 VL

These binders were tested against T1, human CCR8 (human, UniProt P51685 1-355) (assay: FACS on HEK293-human CCR8 cells).
T1 construct: whole, on cells; also called hCCR8
T1 sequence (P51685 whole entry): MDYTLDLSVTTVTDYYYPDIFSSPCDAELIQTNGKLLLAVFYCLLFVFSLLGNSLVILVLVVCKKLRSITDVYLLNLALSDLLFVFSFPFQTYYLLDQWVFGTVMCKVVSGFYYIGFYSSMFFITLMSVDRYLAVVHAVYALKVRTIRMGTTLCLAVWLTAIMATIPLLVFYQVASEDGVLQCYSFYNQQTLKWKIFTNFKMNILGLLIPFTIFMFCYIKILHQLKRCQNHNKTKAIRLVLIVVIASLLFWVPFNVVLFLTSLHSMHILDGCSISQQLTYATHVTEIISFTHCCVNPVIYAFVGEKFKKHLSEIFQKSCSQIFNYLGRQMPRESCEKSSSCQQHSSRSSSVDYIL
Description: (§1) A total of 5×10⁴ cells for each well were seeded in 96-well plates and washed with FACS buffer (DPBD containing 1.5% FBS) for once. Antibodies were prepared with 3-fold serial dilution ranging from 100 nM to 0.0017 nM in FACS buffer. Cells were incubated with 50 μL of diluted antibodies at 4° C. for 1 hour. […] After primary antibody incubation, cells were washed for 3 times by FACS buffer. Then, cells were stained by Alexa Flu647 labeled anti-human IgG secondary antibody (Jackson ImmunoResearch, #109606170) or Alexa Flu647 labeled anti-mouse IgG secondary antibody (Jackson ImmunoResearch, #115605072) at 1:600 dilution in FACS buffer for 0.5 hour at 4° C. After washed for 3 times, Flow cytometry was performed to measure the binding.
B1 was tested, and the EC50 was 0.534 nM and the “Max MFI” value was 7610 MFI.
B2 was tested, and the EC50 was 3.48 nM and the “Max MFI” value was 1120 MFI.
In the case of B3, the EC50 is reported as 0.193 nM and the “Max MFI” value is reported as 7000 MFI.
For B4, the EC50 was 0.24 nM and the “Max MFI” value was 3830 MFI.
B5 was tested, and the “Max MFI” value was 138 MFI.
In the case of B6, the EC50 is reported as 6.42 nM and the “Max MFI” value is reported as 3110 MFI.
With B7 the EC50 was 15 nM and the “Max MFI” value was 2470 MFI.

Target: T1, human CCR8
Assay: FACS on HEK293-human CCR8 cells
Remark: another data set of the same source
With B8 the EC50 was 0.122 nM and the “Max MFI” value was 5110 MFI.
B9 was tested, and the EC50 was 0.119 nM and the “Max MFI” value was 4740 MFI.
B10 was tested, and the EC50 was 0.144 nM and the “Max MFI” value was 4730 MFI.
In the case of B11, the “Max MFI” value is reported as 756 MFI.
For B12, the EC50 was 0.978 nM and the “Max MFI” value was 1980 MFI.
In the case of B13, the “Max MFI” value is reported as 163 MFI.
With B14 the EC50 was 0.182 nM and the “Max MFI” value was 4500 MFI.
With B15 the EC50 was 0.108 nM and the “Max MFI” value was 4090 MFI.

The binders below were run against T1, human CCR8 (assay: FACS on CHO-K1-human CCR8 cells).
B16 was tested, and the EC50 was 0.0927 nM and the “Max MFI” value was 195000 MFI.
With B17 the EC50 was 0.115 nM and the “Max MFI” value was 200000 MFI.
With B18 the EC50 was 0.112 nM and the “Max MFI” value was 193000 MFI.

Each binder was assayed against T2, cynomolgus CCR8 (cynomolgus, UniProt G7NYJ2 1-355) (assay: FACS on HEK293-cynomolgus CCR8 cells).
T2 construct: whole, on cells
T2 sequence (G7NYJ2 entry or part of it): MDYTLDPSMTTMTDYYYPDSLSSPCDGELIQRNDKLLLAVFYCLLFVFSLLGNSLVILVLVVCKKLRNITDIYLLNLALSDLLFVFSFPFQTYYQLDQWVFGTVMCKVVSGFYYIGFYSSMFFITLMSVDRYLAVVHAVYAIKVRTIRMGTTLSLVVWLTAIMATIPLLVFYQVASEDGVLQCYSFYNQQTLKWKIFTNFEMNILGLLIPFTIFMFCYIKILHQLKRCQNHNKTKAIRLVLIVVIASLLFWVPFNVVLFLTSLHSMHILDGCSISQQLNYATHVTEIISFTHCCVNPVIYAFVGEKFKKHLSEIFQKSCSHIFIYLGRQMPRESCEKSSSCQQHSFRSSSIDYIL
Description: as §1
In the case of B1, the EC50 is reported as 0.578 nM and the “Max MFI” value is reported as 20900 MFI.
B2 was tested, and the EC50 was 146 nM and the “Max MFI” value was 1550 MFI.
With B3 the EC50 was 0.205 nM and the “Max MFI” value was 19900 MFI.
For B4, the “Max MFI” value was 2420 MFI.
For B5, the “Max MFI” value was 443 MFI.
For B6, the “Max MFI” value was 488 MFI.
B7 was tested, and the “Max MFI” value was 414 MFI.

Target: T2, cynomolgus CCR8
Assay: FACS on HEK293-cynomolgus CCR8 cells
Remark: another data set of the same source
B16 was tested, and the EC50 was 0.15 nM and the “Max MFI” value was 3.65e+06 MFI.
B17 was tested, and the EC50 was 0.24 nM and the “Max MFI” value was 4.52e+06 MFI.
For B18, the EC50 was 0.217 nM and the “Max MFI” value was 4.34e+06 MFI.

Each binder was assayed against T2, cynomolgus CCR8 (assay: FACS on ExpiCHO-S-cynomolgus CCR8 cells).
B8 was tested, and the “Max MFI” value was 336 MFI.
B9 was tested, and the “Max MFI” value was 296 MFI.
B10 was tested, and the “Max MFI” value was 267 MFI.
B11 was tested, and the “Max MFI” value was 174 MFI.
For B12, the EC50 was 31.1 nM and the “Max MFI” value was 82 MFI.
B13 was tested, and the “Max MFI” value was 6 MFI.
In the case of B14, the “Max MFI” value is reported as 148 MFI.
With B15 the “Max MFI” value was 350 MFI.

These binders were tested against T1, human CCR8 (assay: FACS on HuT78 cells (endogenous human CCR8)).
With B16 the EC50 was 0.313 nM and the “Max MFI” value was 52900 MFI.
For B17, the EC50 was 0.427 nM and the “Max MFI” value was 52700 MFI.
For B18, the EC50 was 0.384 nM and the “Max MFI” value was 45700 MFI.

The binders below were run against T1, human CCR8 (assay: FACS, competition with CCL1 on CHO-K1-human CCR8 cells).
In the case of B16, the IC50 is reported as 0.17 nM and the “Max Inhibition (%)” value is reported as 100%.
B17 was tested, and the IC50 was 0.247 nM and the “Max Inhibition (%)” value was 99.3%.
With B18 the IC50 was 0.231 nM and the “Max Inhibition (%)” value was 99.4%.

These binders were tested against T1, human CCR8 (assay: FACS, competition with AF647-human CCL1 on CHO-K1-human CCR8 cells).
For B1, the IC50 was 0.936 nM and the “Max Inhibition (%)” value was 99.2%.
For B2, the IC50 was 12.5 nM and the “Max Inhibition (%)” value was 39.5%.
For B3, the IC50 was 0.478 nM and the “Max Inhibition (%)” value was 99.2%.
With B4 the IC50 was 1.24 nM and the “Max Inhibition (%)” value was 86.5%.
For B5, the IC50 was 2.37 nM and the “Max Inhibition (%)” value was 1%.
B6 was tested, and the IC50 was 37.8 nM and the “Max Inhibition (%)” value was 59%.
In the case of B7, the IC50 is reported as 49.6 nM and the “Max Inhibition (%)” value is reported as 57.3%.

Target: T1, human CCR8
Assay: as above
Remark: another data set of the same source
For B8, the IC50 was 0.23 nM and the “Max Inhibition (%)” value was 94.1%.
For B9, the IC50 was 0.216 nM and the “Max Inhibition (%)” value was 92.4%.
B10 was tested, and the IC50 was 0.358 nM and the “Max Inhibition (%)” value was 88.4%.
For B11, the “Max Inhibition (%)” value was 25.6%.
B12 was tested, and the IC50 was 1.84 nM and the “Max Inhibition (%)” value was 78.3%.
B13 was tested, and the “Max Inhibition (%)” value was 1.39%.
With B14 the IC50 was 0.333 nM and the “Max Inhibition (%)” value was 88.2%.
For B15, the IC50 was 0.362 nM and the “Max Inhibition (%)” value was 83.1%.
